*: point of attachment. Biotin = O=C1N[C@H]2[C@H](CS[C@H]2CCCCC(=O)*)N1 A value given as a limit tells only on which side of the number the result lay.

Drawing on publication doi:10.1101/2025.05.08.652848 (bioRxiv, 2025), this text covers Kd, binding result and fraction of PPARG capable of binding CoA for three molecules.

The target of assay [1] is His-PPARG LBD (human PPARG ligand-binding domain, residues 231 to 505), wild type (human) (UniProt P37231). Briefly: AlphaScreen or HTRF.
The target of assay [2] is T1, RXRA^WT:PPARG LBD heterodimer (human, UniProt P37231;P19793).
T1 sequence 1: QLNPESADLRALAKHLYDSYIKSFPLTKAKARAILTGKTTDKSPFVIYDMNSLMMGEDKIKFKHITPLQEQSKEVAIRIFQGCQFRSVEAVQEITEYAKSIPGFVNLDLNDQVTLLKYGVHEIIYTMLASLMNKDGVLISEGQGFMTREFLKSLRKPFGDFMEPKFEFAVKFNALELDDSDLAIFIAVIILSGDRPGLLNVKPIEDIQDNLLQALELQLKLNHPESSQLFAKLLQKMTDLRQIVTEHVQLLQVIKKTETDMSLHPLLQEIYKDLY
T1 sequence 2: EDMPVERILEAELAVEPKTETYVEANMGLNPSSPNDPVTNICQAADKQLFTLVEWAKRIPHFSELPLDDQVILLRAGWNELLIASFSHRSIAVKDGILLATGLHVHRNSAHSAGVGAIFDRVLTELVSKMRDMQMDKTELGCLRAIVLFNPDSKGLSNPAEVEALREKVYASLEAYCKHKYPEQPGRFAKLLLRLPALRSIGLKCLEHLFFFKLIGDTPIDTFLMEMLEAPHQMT
Kind of assay: AlphaScreen or HTRF.

Assay [3] deals with N-terminal Avi-tagged PPARG LBD, FTX-6746-modified (human). Kind of assay: SPR.
Assay [4] deals with N-terminal Avi-tagged PPARG LBD, unmodified (DMSO) (human). Briefly: SPR.

Regarding biotinylated MED1 LxxLL peptide, the Kd in assay [1] is greater than 2500 nM.

B1: biotinylated MED1 LxxLL peptide (peptide)
peptide: Biotin-VSSMAGNTKNHPMLMNLLKDNPAQ-NH2
SMILES: CSCC[C@H](NC(=O)[C@H](CO)NC(=O)[C@H](CO)NC(=O)[C@@H](NC(=O)CCCC[C@@H]1SC[C@@H]2NC(=O)N[C@@H]21)C(C)C)C(=O)N[C@@H](C)C(=O)NCC(=O)N[C@@H](CC(N)=O)C(=O)N[C@H](C(=O)N[C@@H](CCCCN)C(=O)N[C@@H](CC(N)=O)C(=O)N[C@@H](Cc1c[nH]cn1)C(=O)N1CCC[C@H]1C(=O)N[C@@H](CCSC)C(=O)N[C@@H](CC(C)C)C(=O)N[C@@H](CCSC)C(=O)N[C@@H](CC(N)=O)C(=O)N[C@@H](CC(C)C)C(=O)N[C@@H](CC(C)C)C(=O)N[C@@H](CCCCN)C(=O)N[C@@H](CC(=O)O)C(=O)N[C@@H](CC(N)=O)C(=O)N1CCC[C@H]1C(=O)N[C@@H](C)C(=O)N[C@@H](CCC(N)=O)C(N)=O)[C@@H](C)O
Regarding B1, in assay [2], the Kd amounted to 270 nM and the binding result was “binds”. The fraction of PPARG capable of binding CoA in assay [3] is 34%. This molecule also had a fraction of PPARG capable of binding CoA in assay [4] of 82%.

B2: biotinylated NCOR1 ID2 peptide (peptide)
peptide: Biotin-GHSFADPASNLGLEDIIRKALMG-NH2
SMILES: CC[C@H](C)[C@H](NC(=O)[C@H](CC(=O)O)NC(=O)[C@H](CCC(=O)O)NC(=O)[C@H](CC(C)C)NC(=O)CNC(=O)[C@H](CC(C)C)NC(=O)[C@H](CC(N)=O)NC(=O)[C@H](CO)NC(=O)[C@H](C)NC(=O)[C@@H]1CCCN1C(=O)[C@H](CC(=O)O)NC(=O)[C@H](C)NC(=O)[C@H](Cc1ccccc1)NC(=O)[C@H](CO)NC(=O)[C@H](Cc1c[nH]cn1)NC(=O)CNC(=O)CCCC[C@@H]1SC[C@@H]2NC(=O)N[C@@H]21)C(=O)N[C@H](C(=O)N[C@@H](CCCNC(=N)N)C(=O)N[C@@H](CCCCN)C(=O)N[C@@H](C)C(=O)N[C@@H](CC(C)C)C(=O)N[C@@H](CCSC)C(=O)NCC(N)=O)[C@@H](C)CC
As to B2, in assay [2], the binding result was “binds”.
